Measurements taken from patent publication CN118076384A (SPARKS BIOSCIENCE INC, dated 2024).
Substitutions are numbered along the chain they refer to.

Columns and labels:
[1] = biological target: PDL1 on PDL1 aAPC/CHOK1 cells (UniProt Q9NZQ7 19-290, limits assumed); assay: cell-based or functional assay
[2] = biological target: T1, PDL1 on MDA MB-231 human breast cancer cells (human, UniProt Q9NZQ7 19-290); assay: flow cytometry on MDA MB-231 cells, anti-human IgG Fc secondary antibody
T1 construct: whole, on cells; also called 表达PD-L1的肿瘤细胞

[3] = biological target: T2, 人PD-L1 (recombinant protein of the phage ELISA) (human, UniProt Q9NZQ7 19-239, limits assumed); assay: competitive phage ELISA, ratio to parental clone 12A4
T2 construct: also called CD274; B7同源物1

[4] = biological target: T2, 人PD-L1 (recombinant protein of the …); assay: competitive phage ELISA, Fab on phage, soluble PD-L1 against coated PD-L1

B1: 抗PDL1单克隆抗体12A4bad (antibody, V domains shown)
VH: QVQLVQSGAEVKKPGSSVKVSCKTSGDTFSTYAISWVRQAPGQGLEWMGGIIPLFGKAHYAQKFQGRVTITADESTSTAYMELSSLRSEDTAVYFCARKFHFVRGSPFGMDVWGQGTTVTVSS
VL: EIVLTQSPATLSLSPGERATLSCRASQSVSSYLAWYQQKPGQAPRLLIYDASNRAPGIPARFSGSGSGTDFTLTISSLEPEDFAVYYCQQRSNWPTFGQGTKVEIK
EC50 of luminescence in the PDL1/PD1 blockade bioassay [1]: 0.344 nM
Kd [2]: 0.0778 nM

B2: 12A4bad (Fab displayed on phage) (Fab, V domains shown)
VH: B1 VH
VL: B1 VL
相对于12A4亲本克隆的改善 [3]: 7.5 fold
Kd [4]: 1.5 nM

B3: 12A4bd (Fab displayed on phage) (Fab, V domains shown)
VH: B1 VH
VL: not shown
相对于12A4亲本克隆的改善 [3]: 6.3 fold
Kd [4]: 1.8 nM

B4: 12A4a (Fab displayed on phage) (Fab, V domains shown)
VH: B1 VH with L54I, R104S
VL: B1 VL
相对于12A4亲本克隆的改善 [3]: 1.3 fold
Kd [4]: 8.3 nM
